Measurements from the supplement of paper PMC9233669.
Variants at the floor of the assay were thinned out.

Assays:
biotinyl-Phe-oxazolone = experiment: self-aminoacylation, catalytic enhancement (BFO) (fold over background); higher = more active; k-Seq, kA / k0A0; sequences stand for … in GGGAAUGGAUCCACAUCUACGAAUUC…UUCACUGCAGACUUGACGAAGCUG
Procedure, shortened: (§1)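 Mutagenized RNA pools with a 21-nt variable region (0.43 μM) reacted with each biotinyl-aminoacyl-oxazolone at 2–1250 μM. Reactions ran in 50 μL HEPES/NaCl/KCl/MgCl2/CaCl2 buffer with 5% acetonitrile, pH 6.9–7.0, for 90 minutes at room temperature. Streptavidin-captured RNA was quantified by triplicate qPCR and Illumina sequencing, and per-sequence fraction reacted was fit to a pseudo-first-order model with 1000 bootstraps. Catalytic enhancement is median kA divided by the uncatalyzed rate, the low-activity peak of a bimodal Gaussian fit.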

biotinyl-Ile-oxazolone = experiment: self-aminoacylation, catalytic enhancement (BIO) (fold over background); higher = more active; k-Seq, kA / k0A0; sequences stand for … in GGGAAUGGAUCCACAUCUACGAAUUC…UUCACUGCAGACUUGACGAAGCUG
Procedure, shortened: as §1

biotinyl-Val-oxazolone = experiment: self-aminoacylation, catalytic enhancement (BVO) (fold over background); higher = more active; k-Seq, kA / k0A0; sequences stand for … in GGGAAUGGAUCCACAUCUACGAAUUC…UUCACUGCAGACUUGACGAAGCUG
Procedure, shortened: as §1

biotinyl-Met-oxazolone = experiment: self-aminoacylation, catalytic enhancement (BMO) (fold over background); higher = more active; k-Seq, kA / k0A0; sequences stand for … in GGGAAUGGAUCCACAUCUACGAAUUC…UUCACUGCAGACUUGACGAAGCUG
Procedure, shortened: as §1

biotinyl-Trp-oxazolone = experiment: self-aminoacylation, catalytic enhancement (BWO) (fold over background); higher = more active; k-Seq, kA / k0A0; sequences stand for … in GGGAAUGGAUCCACAUCUACGAAUUC…UUCACUGCAGACUUGACGAAGCUG
Procedure, shortened: as §1

biotinyl-Leu-oxazolone = experiment: self-aminoacylation, catalytic enhancement (BLO) (fold over background); higher = more active; k-Seq, kA / k0A0; sequences stand for … in GGGAAUGGAUCCACAUCUACGAAUUC…UUCACUGCAGACUUGACGAAGCUG
Procedure, shortened: as §1

Sequence | self-aminoacylation (biotinyl-Phe-oxazolone) | self-aminoacylation (biotinyl-Ile-oxazolone) | self-aminoacylation (biotinyl-Val-oxazolone) | self-aminoacylation (biotinyl-Met-oxazolone) | self-aminoacylation (biotinyl-Trp-oxazolone) | self-aminoacylation (biotinyl-Leu-oxazolone)
GAACUUCAAACAAUCGGUCUG [Fam1A.1 aminoacylation ribozyme variant] | 65.3 | 1.85 | 1.66 | 1.7 | 35.8 | 2.4
CGACACUUCGAGCAAUCGGUC [Fam1B.1 aminoacylation ribozyme variant] | 1.37 | 1.24 | 1.4 | 1.28 | 0.998 | 1.18
CUACUUCAAUUAAUCGGUCUG [Fam1A.1 aminoacylation ribozyme variant] | 18.7 | 1.08 | 0.985 | 1.03 | 13.9 | 1.33
AUGCACCUAGGUCAUCGGGUU [Fam2.2 aminoacylation ribozyme variant] | 5.22 | 3.66 | 3.24 | 4.43 | 4.05 | 4.54
AUUCACGUAGGUCAUCUGGUG [Fam2.2 aminoacylation ribozyme variant] | 31.2 | 3.05 | 3.61 | 5.3 | 4.82 | 5.52
CUUCACCUAGGUCUUCGGGUG [Fam2.2 aminoacylation ribozyme variant] | 34.1 | 4.13 | 5.98 | 6.17 | 6.37 | 6.81
AGUCACCUAGGGCAUCGGGUG [Fam2.2 aminoacylation ribozyme variant] | 34.4 | 4.43 | 3.45 | 3.71 | 6.69 | 4.67
GUACUUCAAACAAUCGGUCUC [Fam1A.1 aminoacylation ribozyme variant] | 39.5 | 1.5 | 1.4 | 1.65 | 26.5 | 2.06
AUUCACCUAAGUCAUGGGGUG [Fam2.2 aminoacylation ribozyme variant] | 33.4 | 3.71 | 3.47 | 5.16 | 5.16 | 7.26
AAGUUUGUUAAUAGUCGCAAU [Fam3.1 aminoacylation ribozyme variant] | 2.29 | 1.73 | 1.45 | 1.5 | 1.94 | 1.51
AAGUUCGCUAAUAGUAGCAAG [Fam3.1 aminoacylation ribozyme variant] | 3.5 | 1.67 | 1.26 | 1.55 | 1.24 | 1.28
CUGCUUCAAACAAUAGGUCUG [Fam1A.1 aminoacylation ribozyme variant] | 0.781 | 0.621 | 0.669 | 0.551 | 0.575 | 0.547
UCACACUCCAAGCAAUCGGUC [Fam1B.1 aminoacylation ribozyme variant] | 2.4 | 0.885 | 1.13 | 0.825 | 1.44 | 0.792
CCACACUUCACGCAACCGGUC [Fam1B.1 aminoacylation ribozyme variant] | 0.978 | 1.24 | 1.55 | 1.21 | 0.831 | 1.55
AAGUUUGCUGAUACUCGCAAG [Fam3.1 aminoacylation ribozyme variant] | 0.915 | 1.11 | 0.897 | 0.744 | 1.07 | 0.885
CUACUUCAAAUACUCGGUCUG [Fam1A.1 aminoacylation ribozyme variant] | 0.622 | 0.832 | 0.84 | 0.972 | 0.71 | 0.807
AUUCUCCUAGGUCAUCGGAUG [Fam2.2 aminoacylation ribozyme variant] | 0.611 | 1.03 | 1.1 | 0.975 | 0.795 | 0.907
AUUACCCUGGCCAGCGAGUGA [Fam2.1 aminoacylation ribozyme variant] | 18 | 2.73 | 3.29 | 5 | 4.9 | 4.29
UUUACCCUGGUGAUCGAGUGA [Fam2.1 aminoacylation ribozyme variant] | 28.6 | 3.39 | 3.51 | 6.47 | 7.87 | 6.55
CCACACUACAAGCAUUCGGUC [Fam1B.1 aminoacylation ribozyme variant] | 3.61 | 2.14 | 2.71 | 2.58 | 2.04 | 1.73
CUUACCCCGGUCAUCGAGUGA [Fam2.1 aminoacylation ribozyme variant] | 19.8 | 3.44 | 3.92 | 6.51 | 6.76 | 6.2
AUUCCCCUCGUCAUCGAGUGA [Fam2.1 aminoacylation ribozyme variant] | 15.8 | 3.49 | 3.46 | 4.49 | 5.17 | 4.4
CUUACCCUGAUCAUCGAGUGA [Fam2.1 aminoacylation ribozyme variant] | 16.5 | 3.64 | 3.94 | 7.49 | 9.22 | 7.51
AUGACCCUUGUCAUCGAGUGA [Fam2.1 aminoacylation ribozyme variant] | 31.3 | 3.06 | 3.19 | 6.11 | 7 | 6.36
CCACGAUUCAAGCAAUCGGUC [Fam1B.1 aminoacylation ribozyme variant] | 1.89 | 1.51 | 1.47 | 1.78 | 1.95 | 1.17
CUAUUUCAAACAAUGGGUCUG [Fam1A.1 aminoacylation ribozyme variant] | 0.641 | 0.924 | 0.81 | 0.836 | 0.802 | 0.863

Sequence | self-aminoacylation (biotinyl-Phe-oxazolone) | self-aminoacylation (biotinyl-Ile-oxazolone) | self-aminoacylation (biotinyl-Val-oxazolone) | self-aminoacylation (biotinyl-Met-oxazolone) | self-aminoacylation (biotinyl-Trp-oxazolone) | self-aminoacylation (biotinyl-Leu-oxazolone)
CUACUUCAAACAAACGGCCUG [Fam1A.1 aminoacylation ribozyme variant] | 0.719 | 1.38 | 1.13 | 1.01 | 0.967 | 1.18
AUUCACCUCGGGCAUCGGGUG [Fam2.2 aminoacylation ribozyme variant] | 34.5 | 3.71 | 5.1 | 5.94 | 5.56 | 6.03
AUUGCCCUGGUCAUCCAGUGA [Fam2.1 aminoacylation ribozyme variant] | 44.4 | 3.7 | 4.02 | 6.42 | 7.66 | 7.38
CAACUUCAAAUAAUCGGUCUG [Fam1A.1 aminoacylation ribozyme variant] | 15.6 | 1.27 | 1.11 | 1.05 | 12.2 | 1.39
AUUCACCUAGGUCAUCGGCGG [Fam2.2 aminoacylation ribozyme variant] | 17.9 | 3.21 | 3.27 | 4.11 | 2.74 | 5.14
CUACUUCAAACAAGCGUUCUG [Fam1A.1 aminoacylation ribozyme variant] | 0.391 | 0.481 | 0.499 | 0.499 | 0.503 | 0.517
AUUACCCUGGUCACAGAGUGA [Fam2.1 aminoacylation ribozyme variant] | 54.1 | 4.39 | 4.01 | 8.95 | 9.52 | 10.9
AAGUGUGCUAAUAGUCGCAAG [Fam3.1 aminoacylation ribozyme variant] | 21.7 | 1.56 | 1.36 | 1.69 | 6.71 | 1.36
AUUCACCUUGAUCAUCGGGUG [Fam2.2 aminoacylation ribozyme variant] | 19 | 2.22 | 2.6 | 3.26 | 4.07 | 3.83
CUAAUUCAAACAAUUGGUCUG [Fam1A.1 aminoacylation ribozyme variant] | 0.608 | 0.839 | 0.687 | 0.776 | 0.572 | 0.744
AAGUUUGCUAAUAUUCGCAUG [Fam3.1 aminoacylation ribozyme variant] | 1.47 | 1.14 | 1.19 | 1.19 | 0.844 | 1.08
CCACACUUCAAGCAACCGGAC [Fam1B.1 aminoacylation ribozyme variant] | 0.734 | 1.15 | 1.07 | 0.839 | 0.606 | 0.602
CCACACUUCAAGCAAUCAGUU [Fam1B.1 aminoacylation ribozyme variant] | 2.42 | 1.15 | 1.29 | 0.802 | 1.12 | 0.925
GUUCUUCAAACAAUCGGUCUG [Fam1A.1 aminoacylation ribozyme variant] | 3.63 | 0.863 | 0.824 | 1 | 2.39 | 0.983
UUGUUUGCUAAUAGUCGCAAG [Fam3.1 aminoacylation ribozyme variant] | 9.39 | 1.41 | 1.42 | 1.33 | 3.52 | 1.24
AUUAGCCUAGUCAUCGAGUGA [Fam2.1 aminoacylation ribozyme variant] | 4.14 | 2.47 | 2.18 | 2.65 | 3.09 | 2.79
AUUCACCUAGGUGAUCUGGUG [Fam2.2 aminoacylation ribozyme variant] | 7.54 | 1.34 | 1.47 | 1.99 | 1.84 | 2.36
AUUUACCUAAGUCAUCGGGUG [Fam2.2 aminoacylation ribozyme variant] | 64.2 | 4.85 | 4.66 | 7.89 | 7.89 | 11.1
UCUCACCUAGGUCAUCGGGUG [Fam2.2 aminoacylation ribozyme variant] | 16.1 | 2.33 | 3.09 | 3.73 | 3.84 | 3.81
AUUACCCUGGUCGUCGAGUGC [Fam2.1 aminoacylation ribozyme variant] | 1.76 | 0.739 | 0.907 | 0.9 | 0.43 | 0.808
CGACUUCAAACAGUCGGUCUG [Fam1A.1 aminoacylation ribozyme variant] | 10 | 1.83 | 1.84 | 1.71 | 1.98 | 1.63
AUUCUCCUAGGUAAUCGGGUG [Fam2.2 aminoacylation ribozyme variant] | 33.1 | 2.55 | 2.45 | 4.1 | 4.29 | 6.03
CUUAACCUAGGUCAUCGGGUG [Fam2.2 aminoacylation ribozyme variant] | 15.8 | 2.91 | 2.69 | 4.25 | 4.21 | 4.78
ACUCAUCUAGGUCAUCGGGUG [Fam2.2 aminoacylation ribozyme variant] | 42.4 | 5.55 | 5.04 | 6.28 | 7.26 | 6.97
AUUAGCCUGGACAUCGAGUGA [Fam2.1 aminoacylation ribozyme variant] | 45.3 | 3.91 | 3.53 | 8.78 | 8.52 | 9.56
